Experimental data from article PMC5440646 (2017).
Where no end group is shown, it is not given here. [ ]: non-standard residue; d: D form. The star is where a group is joined. Biotin = O=C1N[C@H]2[C@H](CS[C@H]2CCCCC(=O)*)N1; pY = N[C@@H](Cc1ccc(OP(=O)(O)O)cc1)C(=O)O

T1: SLP-76 SH2 domain, His-tagged (UniProt Q13094 422-530)
T1 chain: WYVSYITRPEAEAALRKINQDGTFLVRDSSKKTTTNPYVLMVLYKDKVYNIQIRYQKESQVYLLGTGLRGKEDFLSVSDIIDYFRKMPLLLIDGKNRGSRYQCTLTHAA

T2: GADS SH2 domain, His-tagged (UniProt O75791 58-149)
T2 chain: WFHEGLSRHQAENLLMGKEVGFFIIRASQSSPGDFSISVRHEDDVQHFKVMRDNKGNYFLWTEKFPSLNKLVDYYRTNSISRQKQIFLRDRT

T3: CD28 pYMN peptide (Homo sapiens, UniProt P10747)
T3 chain: LLHSD[pY]MNMTPRR

T4: CD6 long pY629 peptide (Homo sapiens, UniProt P30203, pY629)
T4 chain: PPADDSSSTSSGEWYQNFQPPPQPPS

B1: GADS SH2 (protein)
chain: FPKWFHEGLSRHQAENLLMGKEVGFFIIRASQSSPGDFSISVRHEDDVQHFKVMRDNKGNYFLWTEKFPSLNKLVDYYRTNSISRQKQIFLRDRTRED

What was measured:
Test in all cases: SPR
[1] = target: T1, SLP-76 SH2 domain, His-tagged
[2] = target: T2, GADS SH2 domain, His-tagged
CD28 pYMN peptide = target: T3, CD28 pYMN peptide
CD6 long pY629 peptide = target: T4, CD6 long pY629 peptide

Binder | Kd [1] [nM] | Kd [2] [nM] | Kd (CD28 pYMN peptide) [nM] | Kd (CD6 long pY629 peptide) [nM]
Biotin-STSSGEWYQNFQPPPQPPSEEQFGCPGSPSPQPDSTDNDD[pY]DDISAA [long CD6 peptide phosphorylated at Y662] | 1000 |  |  | 
Biotin-STSSGEW[pY]QNFQPPPQPPSEEQFGCPGSPSPQPDSTDNDD[pY]DDISAA [long CD6 peptide phosphorylated at Y629 and Y662] | 1000 | 1000 |  | 
Biotin-STSSGEW[pY]QNFQPPPQPPSEEQFGCPGSPSPQPDSTDNDDYDDISAA [long CD6 peptide phosphorylated at Y629] |  | 1000 |  | 
B1 |  |  | ~2500 | ~400
